B1: GLT8D2 (parent)
chain: QEAKLLHWNGRHKPWDFPSVHNDL
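Further: lentivirally expressed fusions sorted by FACS into six bins by GFP to DsRed ratio, PSI derived from sequencing read proportions per bin multiplied by bin number.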

The data set covers variants of B1. Briefly: protein stability index of a GFP-peptide fusion (GPS, HEK-293T) (PSI 1-6); higher = more stable. The settings on record: c terminus: a fixed tail appended.
For QEAKLLHWNGRHKPWDFPSVDNDL, the protein stability index amounted to 3.39.

For the variant QEAKLLHWNGRHKPWDFPSVVNDL, the protein stability index worked out at 2.67.

In the case of QEAKLLHWNGRHKPWDFPSVSNDL, the protein stability index was found to be 3.21.

For the variant QEAKLLHWNGRHKPWDFPSVKNDL, the protein stability index was found to be 2.75.

As to QEAKLLHWNGRHKPWDFPSVENDL, the protein stability index was 3.46.

For QEAKLLHWNGRHKPWDFPSVGNDL, the protein stability index was 3.09.

As to QEAKLLHWNGRHKPWDFPSVMNDL, the protein stability index turned out to be 3.05.

For the variant QEAKLLHWNGRHKPWDFPSVNNDL, the protein stability index came to 2.96.

Take QEAKLLHWNGRHKPWDFPSVQNDL: the protein stability index was determined as 2.94.

On to QEAKLLHWNGRHKPWDFPSVINDL, for which the protein stability index was 2.77.

In the case of QEAKLLHWNGRHKPWDFPSVFNDL, the protein stability index was 2.75.

For the variant QEAKLLHWNGRHKPWDFPSVCNDL, the protein stability index was 2.48.

As to QEAKLLHWNGRHKPWDFPSVPNDL, the protein stability index came out at 2.41.

As to QEAKLLHWNGRHKPWDFPSVLNDL, the protein stability index is 2.39.

In the case of QEAKLLHWNGRHKPWDFPSVANDL, the protein stability index is 2.9.

With QEAKLLHWNGRHKPWDFPSVTNDL, the protein stability index came out at 3.

QEAKLLHWNGRHKPWDFPSVRNDL: the protein stability index turned out to be 3.

With QEAKLLHWNGRHKPWYFPSVHNDL, the protein stability index turned out to be 1.87.

For QEAKLLHWNGRHKPWDFPSQHNDL, the protein stability index amounted to 3.17.

As for QEAKLLHWNGRHKPWDFPSLHNDL, the protein stability index was found to be 2.41.

As for QEAKLLHWNGRHKPWDFPSAHNDL, the protein stability index is 2.97.

Regarding QEAKLLHWNGRHKPWDFPSSHNDL, the protein stability index stood at 3.

On to QEAKLLHWNGRHKPWDFPSGHNDL, for which the protein stability index was 2.84.

As to QEAKLLHWNGRHKPWDFPSCHNDL, the protein stability index is 2.54.

On to QEAKLLHWNGRHKPWDFPSEHNDL, for which the protein stability index is 3.63.

As for QEAKLLHWNGRHKPWDFPSWHNDL, the protein stability index is 2.38.

For the variant QEAKLLHWNGRHKPWDFPSFHNDL, the protein stability index was found to be 2.53.

As to QEAKLLHWNGRHKPWDFPSMHNDL, the protein stability index worked out at 2.43.

As to QEAKLLHWNGRHKPWDFPSRHNDL, the protein stability index amounted to 2.94.

Consider QEAKLLHWNGRHKPWDFPSKHNDL, for which the protein stability index came out at 2.56.

As to QEAKLLHWNGRHKPWDFPSPHNDL, the protein stability index came out at 2.81.

For the variant QEAKLLHWNGRHKPWDFPSYHNDL, the protein stability index is 2.06.

For the variant QEAKLLHWNGRHKPWDFPSIHNDL, the protein stability index came to 2.78.

As to QEAKLLHWNGRHKPWDFPSTHNDL, the protein stability index was found to be 2.52.

As for QEAKLLHWNGRHKPWDFPSHHNDL, the protein stability index was 2.77.

Consider QEAKLLHWNGRHKPWDFPSDHNDL, for which the protein stability index was 3.53.

For QEAKLLHWNGRHKPWDFPSNHNDL, the protein stability index was determined as 3.23.

On to QEAKLLHWNGRHKPWDWPSVHNDL, for which the protein stability index was determined as 2.58.

Regarding QEAKLLHWNGRHKPWDGPSVHNDL, the protein stability index was 3.15.

In the case of QEAKLLHWNGRHKPWDRPSVHNDL, the protein stability index amounted to 3.04.

On to QEAKLLHWNGRHKPWDIPSVHNDL, for which the protein stability index is 3.1.

Consider QEAKLLHWNGRHKPWDSPSVHNDL, for which the protein stability index was found to be 3.96.

For the variant QEAKLLHWNGRHKPWDKPSVHNDL, the protein stability index is 3.16.

Regarding QEAKLLHWNGRHKPWDCPSVHNDL, the protein stability index was determined as 3.14.

For QEAKLLHWNGRHKPWDVPSVHNDL, the protein stability index stood at 3.18.

On to QEAKLLHWNGRHKPWDHPSVHNDL, for which the protein stability index was 3.24.

For QEAKLLHWNGRHKPWDDPSVHNDL, the protein stability index was found to be 3.36.

In the case of QEAKLLHWNGRHKPWDEPSVHNDL, the protein stability index is 4.18.

For QEAKLLHWNGRHKPWDYPSVHNDL, the protein stability index stood at 2.81.

As for QEAKLLHWNGRHKPWDAPSVHNDL, the protein stability index worked out at 3.45.

With QEAKLLHWNGRHKPWDMPSVHNDL, the protein stability index was found to be 3.22.

Consider QEAKLLHWNGRHKPWDTPSVHNDL, for which the protein stability index worked out at 3.17.

On to QEAKLLHWNGRHKPWDQPSVHNDL, for which the protein stability index amounted to 3.3.

As to QEAKLLHWNGRHKPWDLPSVHNDL, the protein stability index worked out at 3.05.

With QEAKLLHWNGRHKPWDPPSVHNDL, the protein stability index is 3.24.

Take QEAKLLHWNGRHKPWDNPSVHNDL: the protein stability index is 2.85.

Take QEAKLLHWNGRHKPWDFFSVHNDL: the protein stability index was determined as 2.18.

QEAKLLHWNGRHKPWDFASVHNDL: the protein stability index was 2.23.

Consider QEAKLLHWNGRHKPWDFCSVHNDL, for which the protein stability index stood at 2.6.

QEAKLLHWNGRHKPWDFLSVHNDL: the protein stability index worked out at 2.25.

QEAKLLHWNGRHKPWDFQSVHNDL: the protein stability index came out at 2.83.

For QEAKLLHWNGRHKPWDFYSVHNDL, the protein stability index was 2.24.

With QEAKLLHWNGRHKPWDFMSVHNDL, the protein stability index was 2.26.

QEAKLLHWNGRHKPWDFGSVHNDL: the protein stability index is 2.32.

On to QEAKLLHWNGRHKPWDFKSVHNDL, for which the protein stability index was 2.99.

Turning to QEAKLLHWNGRHKPWDFESVHNDL, the protein stability index is 2.98.

As to QEAKLLHWNGRHKPWDFTSVHNDL, the protein stability index was 2.32.

Consider QEAKLLHWNGRHKPWDFWSVHNDL, for which the protein stability index is 1.8.

QEAKLLHWNGRHKPWDFRSVHNDL: the protein stability index was determined as 2.41.

With QEAKLLHWNGRHKPWDFVSVHNDL, the protein stability index was 2.82.

Take QEAKLLHWNGRHKPWDFSSVHNDL: the protein stability index turned out to be 2.59.

QEAKLLHWNGRHKPWDFNSVHNDL: the protein stability index amounted to 2.72.

For the variant QEAKLLHWNGRHKPWDFDSVHNDL, the protein stability index was determined as 3.06.

Take QEAKLLHWNGRHKPWDFHSVHNDL: the protein stability index came to 2.58.

On to QEAKLLHWNGRHKPWDFISVHNDL, for which the protein stability index worked out at 2.23.

Turning to QEAKLLHWNGRHKPWDFPAVHNDL, the protein stability index came to 3.21.

Consider QEAKLLHWNGRHKPWDFPHVHNDL, for which the protein stability index was found to be 2.58.

As to QEAKLLHWNGRHKPWDFPNVHNDL, the protein stability index worked out at 2.84.

QEAKLLHWNGRHKPWDFPIVHNDL: the protein stability index is 2.5.

With QEAKLLHWNGRHKPWDFPGVHNDL, the protein stability index was found to be 2.51.

For the variant QEAKLLHWNGRHKPWDFPKVHNDL, the protein stability index is 2.6.

On to QEAKLLHWNGRHKPWDFPTVHNDL, for which the protein stability index was determined as 2.33.

Regarding QEAKLLHWNGRHKPWDFPFVHNDL, the protein stability index came to 2.31.

With QEAKLLHWNGRHKPWDFPRVHNDL, the protein stability index was determined as 2.38.

With QEAKLLHWNGRHKPWDFPVVHNDL, the protein stability index amounted to 2.56.

Regarding QEAKLLHWNGRHKPWDFPLVHNDL, the protein stability index came out at 1.96.

In the case of QEAKLLHWNGRHKPWDFPQVHNDL, the protein stability index amounted to 2.95.

With QEAKLLHWNGRHKPWDFPPVHNDL, the protein stability index stood at 2.7.

As to QEAKLLHWNGRHKPWDFPEVHNDL, the protein stability index is 3.92.

Regarding QEAKLLHWNGRHKPWDFPMVHNDL, the protein stability index came out at 2.79.

Turning to QEAKLLHWNGRHKPWDFPDVHNDL, the protein stability index stood at 3.43.

On to QEAKLLHWNGRHKPWDFPCVHNDL, for which the protein stability index was determined as 2.38.

As for QEAKLLHWNGRHKPWDFPYVHNDL, the protein stability index is 2.12.

With QEAKLLHWNGRHKPWDFPWVHNDL, the protein stability index is 1.61.

For the origin of these results see the supplement of paper PMC10567573.
